This note sets out measurements from the DeepSol protein solubility set.

The data set is described as follows: soluble on expression in E. coli; label from the status in PepcDB or PDB records.
As to “MSWVQLAGHTGSFKAAGTSGLILKRCSEPERYCLARLMADALRGCVPAFHGVVERDGESYLQLQDLLDGFDGPCVLDCKMGVRTYLEEELTKARERPKLRKDMYKKMLAVDPEAPTEEEHAQRAVTKPRYMQWREGISSSTTLGFRIEGIKKADGSCSTDFKTTRSREQVLRVFEEFVQGDEEVLRRYLNRLQQIRDTLEVSEFFRRHEVIGSSLLFVHDHCHRAGVWLIDFGKTTPLPDGQILDHRRPWEEGNREDGYLLGLDNLIGILASLAER”, the “soluble on expression in E. coli” value is on record as “soluble”.
The same measure for “MSYNSIRLPQDLPIYYKNFFPVKPFTKWLCYGQNYGDYFNRREFTFILADDVHIRYRSYNDEHSFVKALSSTNPEKLDIGAVYNHEPINNKRYTDYQAVERELVFDIDLTDYDPVRNCCKDATVCPKCWKFMVLAVRILDFQLEEMFNFKARMWVFSGRRGVHCWVGDKKARMLNNNQRSAIATRLNLFKKNGQCEVTEGRAKLTRVPPTVRDAFNVALKDGVFEKMIYEQGWLDNDRFIIDYQYMSEFGRDDLRRISESFKTPQERWHMLRGLFDNDYRKTLSQNDGLLDFVNNARSRPKKVLLYFVLQRCYPRLDANVTTGTNHLLKSPFCIHPKTGNVAVPLNVEKIGEFDVSKCPRIDHVVEELSSLLTERGNDGDEDSKNRKFLAYKHGALSPYVENFEMFVSACIS”: “not soluble”; for “MSYSPSLKEIIAILQKYTSKNYQSNCKTRPDGKLELSLNGVFEEIVKTPGKTRYVTHKQLDQKLKDFKQDLMVELHDTFATKTDLKESEARINQKLEALIQIVMVQGEQIKVHGEQINKLTQAVEKQGEKIEAQGQQIQKVNETLNFVVESLGSIHKRLDSMEGRLDSMENRLDKLESK”: “soluble”.
The same measure for “MSYSWKKILIKPESTVVDALRVIDNEALRIALVVNDEQQLLGVVTDGDIRRGLLNNLPLETPVVDIMSRSPITASVNTAKEQLVKLMESKSILAVPLMEENKVVGLETLHHLFEEKTYHNPVFIMAGGFGTRLRPLTDTCPKPMLKIGNKPILETVIRSFIKAGFVNFYISTHYMPEQIQNHFGDGSELGVKISYVHEDSPLGTGGALGLLPDDLPQDLPLIMMNGDVLTKVDFERLLDFHTENQADATMCVREYDYQIPYGVINGKGNKITSMVEKPIQRFFVNAGIYVVSPSVIQSVPKNHHIDMPTLLEQHMNERDNILMFPIHEYWLDIGRMDDFNRAQADIHTLGLDLEHHHHHH”: “not soluble”.
With “MSYTKEQLMLAFSYMSYYGITHTGSAKKNAELILKKMKEALKTWKPFQEDDWEVVWGPAVYTMPFTIFNDAMMYVIQKKGAEGEYVIAIRGTNPVSISDWLFNDFMVSAMKKWPYASVEGRILKISESTSYGLKTLQKLKPKSHIPGENKTILQFLNEKIGPEGKAKICVTGHSKGGALSSTLALWLKDIQGVKLSQNIDISTIPFAGPTAGNADFADYFDDCLGDQCTRIANSLDIVPYAWNTNSLKKLKSIYISEQASVKPLLYQRALIRAMIAETKGKKYKQIKAETPPLEGNINPILIEYLVQAAYQHVVGYPELMGMMDDIPLTDIFEDAIAGLLHHHHHH” the entry was “soluble”; with “MTAALHIGHLSKSFQNTPVLNDISLSLDPGEILFIIGASGCGKTTLLRCLAGFEQPDSGEISLSGKTIFSKNTNLPVRERRLGYLVQEGVLFPHLTVYRNIAYGLGNGKGRTAQERQRIEAMLELTGISELAGRYPHELSGGQQQRAALARALAPDPELILLDEPFSALDEQLRRQIREDMIAALRANGKSAVFVSHDREEALQYADRIAVMKQGRILQTASPHELYRQPADLDAALFIGEGIVFPAALNADGTADCRLGRLPVQSGAPAGTRGTLLIRPEQYSLHPHSAPAASIHAVVLKTTPKARHTEISLRAGQTVLTLNLPSAPTLSDGISAVLHLDGPALFFPGNTLEHHHHHH”, “soluble”; with “MTAKTEDNLKEYTRSQVEQHCTHDDLWLLFRDKVYNMTPYFNQHPGGLAILRYAGKDVTTVLPFVVSHGIAWKIVEQKLQEHLIGKLKE”, “not soluble”.
Regarding “MTALTWTDERVEQLKKLWEGGLSASQIAAELGNVTRNAVIGKVHRLGLSGRAKSPTSAAPRPRKARPVQQMMRVTRPVARGNTALAHAFEVEAEPDPIAFDNVVPMNQRLSLLELNEATCHWPVGDPSSPEFFFCGGKSLPGLPYCAHHSRIAYQPVGDRRRAAPKTTRLEHHHHHH”, the “soluble on expression in E. coli” value was “soluble”.
For the sequence “MTAMDHQFPSWIVVNESTSISREQLNYLLETYNVFYENQKNLHILYGQTEDGQLIVEGMLDIFWGVKRPIQLKIQDEKQISSFDLLNTPETFSSKGRMTRWGEFDDLYRISELDRTHVLASEARHSPEDYLSYHSTLTPYADEEPESPLLYRTMSEAESPLLYRTMSEAALVRKRMRAPEMYRKDRMGVLSNHRASINGHVYDHETSIFTPTFGSETKVRANSIMRTEEVIKQLLQKFKIENSPRDFALYIIFGTGEQRKLKKTDVPLLQRLLQGPSKSNARIFLMDKDAEEISRDVAPYINFHFSFLESILQRLDEEEKMEIERIMAKFNTERAFILKCLQSKQAAKTETTV”, the “soluble on expression in E. coli” value is recorded as “soluble”.
With “MTATQITGVVLAAGRSNRLGTPKQLLPYRDTTVLGATLDVARQAGFDQLILTLGGAASAVRAAMALDGTDVVVVEDVERGCAASLRVALARVHPRATGIVLMLGDQPQVAPATLRRIIDVGPATEIMVCRYADGVGHPFWFSRTVFGELARLHGDKGVWKLVHSGRHPVRELAVDGCVPLDVDTWDDYRRLLESVPS” the entry was “not soluble”.
With “MTATWSVNKKIFLQNAITVKNNQPLMAVVKNNAYHYDLEFAVTQFIHAGIDTFSTTSLREAIQIRQLAPDATIFLMNAVYEFDLVREHQIHMTLPSLTYYYNHKNDLAGIHVHLEFENLLHRSGFKDLNEIKEVLKDHHHNQNAKMIISGLWTHFGYADEFDVSDYNVERSQWMEIVEALLSEGYQFDLIHAQNSASFYREGQILLPHHTHARVGIALYGSRPYSSLNQHDIVQSLTLKAHVIQVREVQAGDYCGYSFAFEVTKNNTKLAVVDIGYGDGILRTRAKHEALINGKRYPIRALMMSHMFVEVDGNVHAQDEVILYNNDIRIDEYTFKGVGANSEQLSAMNHDSLKKEYISNDC” the entry was “not soluble”; with “MTCWLRGVTATFGRPAEWPGYLSHLCGRSAAMDLGPMRKSYRGDREAFEETHLTSLDPVKQFAAWFEEAVQCPDIGEANAMCLATCTRDGKPSARMLLLKGFGKDGFRFFTNFESRKGKELDSNPFASLVFYWEPLNRQVRVEGPVKKLPEEEAECYFHSRPKSSQIGAVVSHQSSVIPDREYLRKKNEELEQLYQDQEVPKPKSWGGYVLYPQVMEFWQGQTNRLHDRIVFRRGLPTGDSPLGPMTHRGEEDWLYERLAP”, “soluble”; with “MTDEERIELQQNNPLHGLKLETMLQELVDFYGWDILDTAMRFNCFNTKPSIASSVKYLKKTEWAREKLENFYLYRFKRMPRASEEEYNLPPRARTFPHGLEPKEPMPLTVDSILNSQAKAASSFKKRSSRGRPTRRLEHHHHHH”, “soluble”.
As for “MTDIKMIALGGVREYGKNFYLVEINDSMFILDAGLKYPENEQLGVDLVIPNLDYVIENKGKVQGIFLSHGHADAIGALPYLLAEVSAPVFGSELTIELAKLFVKSNNSTKKFNNFHVVDSDTEIEFKDGLVSFFRTTHSIPESMGIVIGTDKGNIIYTGDFKFDQAAREGYQTDLLRLAEIGKEGVLALLSDSVNATSNDQIASESEVGEEMDSVISDADGRVIVAAVASNLVRIQQVFDSATAHGRRVVLTGTDAENIVRTALRLEKLMITDERLLIKPKDMSKFEDHELIILEAGRMGEPINSLQKMAAGRHRYVQIKEGDLVYIVTTPSTAKEAMVARVENLIYKAGGSVKLITQNLRVSGHANGRDLQLLMNLLKPQYLFPVQGEYRDLAAHAKLAEEVGIFPENIHILKRGDIMVLNDEGFLHEGGVPASDVMIDGNAIGDVGNIVLRDRKVLSEDGIFIVAITVSKKEKRIISKAKVNTRGFVYVKKSHDILRESAELVNTTVGNYLKKDTFDWGELKGNVRDDLSKFLFEQTKRRPAILPVVMEVR”, the “soluble on expression in E. coli” value is listed as “not soluble”.
Regarding “MTDLHPVKEETFNITAMNNIDPKGFHRDVDTYSETEFGLYMARGANHPRFGYLESWLLPEINLRANIFHFRDGIDEHQDFYFDIAEISHDGHTWHTRDLYVDLISVVGEPVRVDDTDELAAATSAGLITAEDAEKAIDATLLAVDGITRHNDDPMAWLAAMGYPLTWAKNITLKEAE”, the “soluble on expression in E. coli” value was “soluble”.
Consider “MTDLTGILYIVATPIGNLQDITQRALETFAQVDLIAAEDTRHSGLLLSHYGIKKPFFALHDHNEQEKAHILVEKLKQGSNIALISDAGTPLISDPGFHLVRQCREAGIRVVPLPGACAAITALCASGIASDRFCFEGFLPAKSKARKDKLENIAEEDRTLIFYESTHRILDTLEDMQAVLGEERYIVLAREMTKTWETITGNTIKNLREWLLEDPNRTKGEMVLIVEGKPKSDNNDEISPQAVKALELIAEELPLKKAAAIVAELYGYKKNALYQFGLAHLEKLEHHHHHH”, for which the “soluble on expression in E. coli” value is on record as “soluble”.
Regarding “MTDQPDVQRVQTASRDNSTVIDLREYKTNKDPLPVTFHRRELDAILRIYGRMVGEGEWRDYAIDHLKEKAVFSVFKRSGEMPLYRIEKNPKLATKQGAYCVVNVDGRILKRGHELPQVLKVFDKVLKLIE”, the “soluble on expression in E. coli” value is “not soluble”.
With “MTDRLSILVPIRVLEGESVPEGVPELLAHAHVVLLGYHVIPEQTAPGQARMQFEDRATERLDEYQEMFEDAGATVERRLVFTHNGQKTIDRMIAEHDCMAVLVPNATGPVEDVLVPVRGAIGVDRLARVVASVFGEMDADVTLYHVADEDTTDDDIQTLLGGLADRLAEFGMDPSTIETRIDRDQNPLDAIVDVSDGFDTVVMGETDPSLATFVFGMPADQVANRFLGPVFVAQRERPSADEDE” the entry was “not soluble”; with “MTDYDVLRVFCAPNGGYGNELGVVRDGSVLPEPERRQELAAKLGFSETVFVDDPERGVVDIYTPTLRLPFAGHPCVGTAWLLDVPELVTRAGVVGARLDGEFSWIEARPEWAPPRTLRQYAAVAEVDDLAVPPKGEWVYAWAWEDEAAGRVRARAFPGRDDGIDEDEATGAAALLLTGRLGRALNITQGVGSQILTAPQPEGWVEIGGRVRLERLEHHHHHH”, “not soluble”; with “MTEAMKITLSTQPADARWGEKATYSINNDGITLHLNGADDLGLIQRAARKIDGLGIKHVQLSGEGWDADRCWAFWQGYKAPKGTRKVVWPDLDDAQRQELDNRLMIIDWVRDTINAPAEELGPSQLAQRAVDLISNVAGDRVTYRITKGEDLREQGYMGLHTVGRGSERSPVLLALDYNPTGDKEAPVYACLVGKGITFDSGGYSIKQTAFMDSMKSDMGGAATVTGALAFAITRGLNKRVKLFLCCADNLISGNAFKLGDIITYRNGKKVEVMNTDAEGRLVLADGLIDASAQKPEMIIDAATLTGAAKTALGNDYHALFSFDDALAGRLLASAAQENEPFWRLPLAEFHRSQLPSNFAELNNTGSAAYPAGASTAAGFLSHFVENYQQGWLHIDCSATYRKAPVEQWSAGATGLGVRTIANLLTA”, “soluble”.
Consider “MTEEFYIGTYTKRISRGIYRVSVDTTTPKLMDCEWLASAGSPTYIAKSNAKRLYVINKKETDGQTHGGLIIYDMSEDKPRAIQQLLDLGSSPAYVAVDEDRQLVYTANYHTAAVDVYAINPDGTLKRTDQVIDQDPVGPAPEQADGPHPHFADLTPDNRLVVCDLGSDRVYVYDVSATGKLSAVSHLDLPAGYGPRHIVFDAKKGVAYLVGELSSNVATLSYDTATGTFTVKTIVSTIPDDWTAHNGAAAIRLSADGKFVYVSNRGNNSLAVFASDEAGQLTLVQRISTEGDFPRDFNWTANQRLVLVVNQNSDNASLFERDAQSGKLTLVQKDFMVPEGVSVLPAKLEHHHHHH”, for which the “soluble on expression in E. coli” value was “soluble”.
